B1: RNA-24/DNA-22 hybrid (DNA:RNA)
RNA: GGCAGUGGUCCAGCAGUGCGUAGC
DNA: GCTACGCACTGCTGGACCACTG

Key:
[1] = target: CaMV RT RNase H mutant D421N (cauliflower mosaic virus)
CaMV RT = CaMV RT (Cauliflower mosaic virus, UniProt A0A2D2PYL0 197-675); assay: gel filtration; 5 mM MgCl2; stable 1:1 complex; Gel filtration: 25 mM Hepes pH 7.5, 200 mM NaCl, 5% glycerol, 5 mM MgCl2, 1 mM DTT, 30 min on ice; crystals: protein in 20 mM Hepes pH 7.5, 200 mM NaCl, 5% glyc; settings: protein: recombinant; tags: none (N-terminal 6xHis-SUMO removed with Ulp1); 5' overhang 2 nt on RNA strand (GG), 22 bp

Molecule	RNase H cleavage efficiency on R40/D28, 1:1:1 mixture of wt RT:mutant RT:substrate, 120 min (against ∼18% for 1:1 wt enzyme:substrate) [1]	binding result (CaMV RT)
cauliflower mosaic virus (CaMV) reverse transcriptase, wild type (from UniProt P03554 1-679) (enzyme)	60%	–
B1	–	binds

Reference: paper PMC11363490, “Structural and biochemical characterization of cauliflower mosaic virus reverse transcriptase”
